Results taken from article PMC2570039 (Molecular cell, 2008).

Key:
[1] = target: FtsK50C (50 amino acids from FtsKN fused to FtsKC) (E. coli); assay: […]
[2] = target: FtsK50C (50 amino acids from FtsKN fused to FtsKC) (E. coli); assay: SEC
crystal structure = target: the molecule itself; assay: crystal structure

| Molecule | stoichiometry N [1] | stoichiometry N [2] | binding result (crystal structure) |
| --- | --- | --- | --- |
| FtsK50C (50 amino acids from FtsKN fused to FtsKC) (domain or fragment) | 6 | 6 | – |
| Seleno-methionine-substituted Pseudomonas aeruginosa FtsK γ-domain (GGS-742-811) (domain or fragment, seleno-methionine-substituted) GGSEGSEDDPLYDEAVRFVTESRRASISAVQRKLKIGYNRAARMIEAMEMAGVVTPMNTNGSREVIAPAPVRD | – | – | binds |
